By Kd is commonly meant the equilibrium constant for the complex coming apart. Read a low Kd as tighter binding.

This is an account of results in paper PMC11289882 (2024).

The target of one assay is T1, CITED2 variant 4 218-256 (Homo sapiens, UniProt Q99967, beta3-amino acid replacements in C-terminus).
T1 chain: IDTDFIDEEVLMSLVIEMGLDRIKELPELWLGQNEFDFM
Put plainly: ITC. (Isothermal titration calorimetry measures the heat released or taken up as one component is titrated into another.)

A further assay concerns the target T2, CITED2 variant 2 218-256 (Homo sapiens, UniProt Q99967, beta3-amino acid replacements in αA helix).
T2 chain: T1 chain
Put plainly: ITC.

The target in assay [1] is T3, CITED2 variant 3b 218-256 (Homo sapiens, UniProt Q99967, beta3-amino acid replacements in loop).
T3 chain: T1 chain
Put plainly: ITC.

Assay [2] deals with T4, CITED2 variant 3a 218-256 (Homo sapiens, UniProt Q99967, beta3-amino acid replacements in loop (LPEL motif)).
T4 chain: T1 chain
Put plainly: ITC.

Assay [3] concerns the target T5, CITED2 variant 3c 218-256 (Homo sapiens, UniProt Q99967, beta3-amino acid replacements in loop).
T5 chain: T1 chain
Put plainly: ITC.

The next assay addresses T6, CITED2 variant 1 218-256 (Homo sapiens, UniProt Q99967, beta3-amino acid replacements in N-terminal tail).
T6 chain: T1 chain
Put plainly: ITC.

Another assay has as its target T7, HIF-1α 776-826 (Homo sapiens, UniProt Q16665).
T7 chain: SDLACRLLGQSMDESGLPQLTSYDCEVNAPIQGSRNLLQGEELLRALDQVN
Put plainly: anisotropy.

B1: p300 TAZ1 330-420 (protein)
chain: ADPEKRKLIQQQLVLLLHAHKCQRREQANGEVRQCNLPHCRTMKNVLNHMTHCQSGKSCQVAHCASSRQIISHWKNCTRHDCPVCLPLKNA
As to B1, the Kd was found to be 17 nM with CITED2 variant 4 218-256; 16 nM with CITED2 variant 2 218-256; 98 nM in assay [1]; 675 nM in assay [2]; 29 nM in assay [3]; 19 nM with CITED2 variant 1 218-256. Further, binding in the assay with HIF-1α 776-826 was characterised by a dissociation constant (Kd) of 57 nM.
